# From patent publication US20150110788A1 (GALAXY BIOTECH, published 2015)
# Assays:
# VEGF [1] = target: T1, VEGF (UniProt P15692-4 27-191, limits assumed); assay: bridging ELISA: VEGF captured on heparin-coated plate, antibody, then Flag-FGF2 and HRP-anti-Flag M2; signal needs binding to both VEGF and Flag-FGF2
# T1 construct: also called vascular endothelial growth factor; VEGF-A
# Description: (§1) Heparin (50 μg/ml) was bound to an ELISA plate overnight and used to capture VEGF (0.2 μg/ml) overnight, followed by 2% BSA for blocking. […] In principle, this assay should only detect bispecific antibody, because any detectable antibody must bind both to the VEGF on the plate in order to be captured and to Flag-FGF2 in solution in order to be detected.
# FGF2 [2] = target: T2, FGF2 (UniProt P09038 143-288, limits assumed); assay: ELISA binding curves, FIG. 6B
# T2 construct: also called basic FGF; basic fibroblast growth factor
# Description: (§2) Heparin (50 μg/ml) was bound to ELISA plates overnight and used to capture either VEGF or FGF2 (0.2 μg/ml) overnight, followed by 2% BSA for blocking.
# VEGF [3] = target: T1, VEGF; assay: ELISA: VEGF captured on heparin-coated plate, detected with HRP-goat-anti-human-IgG-Fc
# Description: as §2
# FGF2 [4] = target: T2, FGF2; assay: ELISA: FGF2 captured on heparin-coated plate, detected with HRP-goat-anti-human-IgG-Fc
# Description: as §2
# Flag-FGF2 = target: T3, Flag-FGF2 (UniProt P09038 135-288, limits assumed); assay: bridging ELISA: VEGF captured on heparin-coated plate, antibody, then Flag-FGF2 and HRP-anti-Flag M2; signal needs binding to both VEGF and Flag-FGF2
# T3 construct: Soluble detection reagent in the bridging ELISA; also called Flag peptide linked to FGF2; not shown: Flag peptide
# Description: as §1
# T1 sequence (P15692 other isoform, or with tags, fused parts or gaps limits assumed): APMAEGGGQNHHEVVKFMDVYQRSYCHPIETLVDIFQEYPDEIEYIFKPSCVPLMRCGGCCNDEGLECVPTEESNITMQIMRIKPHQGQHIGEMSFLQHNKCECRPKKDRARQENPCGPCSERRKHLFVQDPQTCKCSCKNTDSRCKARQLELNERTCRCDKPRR
# T2 sequence (P09038 143-288 limits assumed): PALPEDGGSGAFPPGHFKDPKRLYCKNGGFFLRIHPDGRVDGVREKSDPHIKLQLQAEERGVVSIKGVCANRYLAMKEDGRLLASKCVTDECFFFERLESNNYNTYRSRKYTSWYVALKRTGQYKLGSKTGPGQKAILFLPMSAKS
# T3 sequence (P09038 135-288 limits assumed): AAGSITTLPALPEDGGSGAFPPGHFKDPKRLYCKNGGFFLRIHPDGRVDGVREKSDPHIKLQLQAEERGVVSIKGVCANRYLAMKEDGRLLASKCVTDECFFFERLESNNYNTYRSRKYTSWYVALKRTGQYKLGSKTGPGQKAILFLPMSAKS
binder,measurement,setting,value
"HuGAL-F2 (antibody, V domains shown, also called humanized GAL-F2) VH: EVQLVQSGAEVKKPGSSVKVSCKASGYTFTNYVINWVRQAPGQGLEWIGYNDPYNDVSKYNEKFKGRATITSDKSTSTAYMELSSLRSEDTAVYYCAKEGGGKYVYAMDSWGQGTTVTVSS VL: DIQMTQSPSSLSASVGDRVTITCKASQSVSSDVGWYQQKPGKAPKLLIYSGSNRYSGVPSRFSGSGSGTDFTLTISSLQPEDFATYYCQQDYYSPWTFGQGTKVEIK",binding result,VEGF [1],no binding (tested: 1 µg/ml)
same,binding result,FGF2 [2],binds
"X-Ava/F2 (bispecific antibody, human IgG1, kappa, also called bispecific antibody X-Ava/F2; X-Ava/F2 mAb) light 1: DIQMTQSPSSLSASVGDRVTITCKASQSVSSDVGWYQQKPGKAPKLLIYSGSNRYSGVPSRFSGSGSGTDFTLTISSLQPEDFATYYCQQDYYSPWTFGQGTKVEIKRTVAAPSVFIFPPSDEQLKSGTASVVCLLNNFYPREAKVQWKVDNALQSGNSQESVTEQDSKDSTYSLSSTLTLSKADYEKHKVYACEVTHQGLSSPVTKSFNRGEC heavy 1: not shown light 2: DIQMTQSPSSLSASVGDRVTITCSASQDISNYLNWYQQKPGKAPKVLIYFTSSLHSGVPSRFSGSGSGTDFTLTISSLQPEDFATYYCQQYSTVPWTFGQGTKVEIKSSASTKGPSVFPLAPSSKSTSGGTAALGCLVKDYFPEPVTVSWNSGALTSGVHTFPAVLQSSGLYSLSSVVTVPSSSLGTQTYICNVNHKPSNTKVDKRVEPKSC heavy 2: not shown",fold difference of EC50 against Avastin®,VEGF [3],≤ 2 fold
same,fold difference of EC50 against HuGAL-F2,FGF2 [4],≤ 4 fold
"Avastin® (bevacizumab) (antibody, V domains shown, Humanized anti-VEGF mAb, bivalent; also called Fab-12; F(ab)-12) VH: EVQLVESGGGLVQPGGSLRLSCAASGYTFTNYGMNWVRQAPGKGLEWVGWINTYTGEPTYAADFKRRFTFSLDTSKSTAYLQMNSLRAEDTAVYYCAKYPHYYGSSHWYFDVWGQGTLVTVSS VL: DIQMTQSPSSLSASVGDRVTITCSASQDISNYLNWYQQKPGKAPKVLIYFTSSLHSGVPSRFSGSGSGTDFTLTISSLQPEDFATYYCQQYSTVPWTFGQGTKVEIKR",binding result,Flag-FGF2,no binding (tested: 1 µg/ml)
